This assay addresses A9UPE9 PDZ (A9UPE9_MONBE PDZ domain, residues 7-98) (Monosiga brevicollis). The assay can be described thus: fluorescence polarisation. In general terms: Polarisation of emitted light reports the rotation of a fluorescent probe.

The Ki is the equilibrium dissociation constant of an inhibitor or competing ligand from its target. A9UP44 peptide (QSESRL) had an inhibition constant (Ki) of 64 µM. As for A9UWP5_MONVE peptide (GSESSV), the Ki worked out at 490 µM. As to A9UXE1 peptide (QDETAL), the inhibitory constant (Ki) came out at 460 µM.

A9V6G5_MONBE peptide (HRESTV) displayed a Ki of 97 µM.

A9V7Z4 peptide (EDETAL) came in with an inhibition constant Ki of 580 µM. With B1AR peptide (ASESKV) the figure was 95 µM. In turn, BPIX peptide (WDETNL) gave a Ki of 330 µM.

DLL1/DLL4 peptide (VIATEV) gave a Ki of 240 µM. As to TYRP1 peptide (PNQSVV), the Ki was found to be 97 µM.
